Patent US20250084167A1 (ZENAS BIOPHARMA, published 2025)

Molecular target: T1, human CD19 (human, UniProt P15391 20-556)
T1 construct: CD19 on B cells of healthy subjects and patients (receptor occupancy in clinical studies); also called human B-cell restricted surface antigen CD19
T1 sequence: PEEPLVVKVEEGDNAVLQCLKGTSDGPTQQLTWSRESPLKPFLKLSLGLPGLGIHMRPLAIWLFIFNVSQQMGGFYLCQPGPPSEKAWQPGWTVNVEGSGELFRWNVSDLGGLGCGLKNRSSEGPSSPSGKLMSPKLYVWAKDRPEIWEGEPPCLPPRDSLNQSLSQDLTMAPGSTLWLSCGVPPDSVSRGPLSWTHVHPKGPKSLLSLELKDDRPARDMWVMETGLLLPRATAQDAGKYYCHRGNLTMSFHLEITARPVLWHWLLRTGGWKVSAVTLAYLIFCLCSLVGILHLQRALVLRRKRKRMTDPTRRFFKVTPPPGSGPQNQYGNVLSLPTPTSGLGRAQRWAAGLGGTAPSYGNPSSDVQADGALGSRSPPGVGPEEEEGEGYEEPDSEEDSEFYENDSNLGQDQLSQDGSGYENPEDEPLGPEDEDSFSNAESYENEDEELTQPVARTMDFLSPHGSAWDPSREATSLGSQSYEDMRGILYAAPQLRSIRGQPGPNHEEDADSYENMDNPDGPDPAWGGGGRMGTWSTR
Experiment: population PK/PD model of CD19 receptor occupancy (direct response, sigmoidal Emax) against plasma obexelimab concentration, fitted to data of 4 clinical studies (healthy subjects, RA and IgG4-RD patients); in vivo plasma concentration for half-maximal CD19 receptor occupancy, population PK/PD model fit

EC50: 0.0745 µg/mL
B1: Obexelimab (antibody, human IgG1, kappa, V domains shown)
VH: EVQLVESGGGLVKPGGSLKLSCAASGYTFTSYVMHWVRQAPGKGLEWIGYINPYNDGTKYNEKFQGRVTISSDKSISTAYMELSSLRSEDTAMYYCARGTYYYGTRVFDYWGQGTLVTVSS
VL: DIVMTQSPATLSLSPGERATLSCRSSKSLQNVNGNTYLYWFQQKPGQSPQLLIYRMSNLNSGVPDRFSGSGSGTEFTLTISSLEPEDFAVYYCMQHLEYPITFGAGTKLEIKR
notes: Humanized IgG1 kappa; also called XmAb5871; anti-CD19 antibody
